# Measured values: US20190302117
# Legend:
# [1] = tested on: Peptide 10: EDPIYVTLEGGKKK (version of peptide 2 used for the kinetic experiments)
# [2] = tested on: Peptide 11: DEAIYATVAGGKKK (version of peptide 5 used for the kinetic experiments)
substance,measurement,setting,value
SYK as GST fusion protein,2/5 kcat/Km ratio (peptide 2 against peptide 5),[1],1.8
same,Km,[1],> 200 µM
same,kcat,[1],> 2e-07 s⁻¹
same,kcat/Km,[1],1080 M⁻¹ s⁻¹
same,Km,[2],> 200 µM
same,kcat,[2],> 0.1 s⁻¹
same,kcat/Km,[2],560 M⁻¹ s⁻¹
SRC as GST fusion protein,kcat,[1],> 40 s⁻¹
same,kcat/Km,[1],17500 M⁻¹ s⁻¹
same,kcat,[2],> 2 s⁻¹
same,kcat/Km,[2],9500 M⁻¹ s⁻¹
